# Laboratory results: patent US20200317768A1 (published 2020)
# Positions count from the first letter of the chain named.
# B1: M103205H795-MY453 / M103202L889-SK1 (antibody, human IgG1, kappa)
# heavy: QVTLKESGPVLVKPTETLTLTCTVSGIDLSHDDISWVRQAPGKGLEWVGIISYAGSTYYASWAKGRLTISKDTSKNQVVLTMTNMDPVDTATYYCARGVPAYSHGGDLWGQGTLVTVSSASTKGPSVFPLAPSSKSTSGGTAALGCLVKDYFPEPVTVSWNSGALTSGVHTFPAVLQSSGLYSLSSVVTVPSSSLGTQTYICNVNHKPSNTKVDKKVEPKSCDKTHTCPPCPARELLTGPSVFLFPPKPKDTLMISRTPEVTCVVVDVSDEDPEVKFNWYVDGVEVHNAKTKPREEQYNSTYRVVSVLTVLHQDWLNGKEYKCKVSNKALPKPIEKTISKAKGQPREPQVYTLPPSREEMTKNQVSLTCLVKGFYPSDIAVEWESNGQPENNYKTTPPVLDSDGSFFLYSKLTVDKSRWQQGNVFSCSVMHEALHNHYTQKSLSLSP
# light: DIVMTQSPATLSLSPGERATLSCTSSQSVYHANWLSWFQQKPGQPPKLLIYWASTLAYGVPSRFSGSGSGTDFTLTISSLQPEDAATYYCAGGYGGGRYAFGQGTKVEIKRTVAAPSVFIFPPSDEQLKSGTASVVCLLNNFYPREAKVQWKVDNALQSGNSQESVTEQDSKDSTYSLSSTLTLSKADYEKHKVYACEVTHQGLSSPVTKSFNRGEC
# notes: substitution positions are EU numbers
# B2: M103205H795-MY456 / M103202L889-SK1 (antibody, human IgG1, kappa)
# heavy: B1 heavy with R234V
# light: B1 light
# notes: as for B1
# B3: M103205H795-MY457 / M103202L889-SK1 (antibody, human IgG1, kappa)
# heavy: B1 heavy with R234W
# light: B1 light
# notes: as for B1
# B4: M103205H795-MY458 / M103202L889-SK1 (antibody, human IgG1, kappa)
# heavy: B1 heavy with R234Y
# light: B1 light
# notes: as for B1
# B5: M103205H795-MY455 / M103202L889-SK1 (antibody, human IgG1, kappa)
# heavy: B1 heavy with R234T
# light: B1 light
# notes: as for B1
# B6: M103205H795-MY454 / M103202L889-SK1 (antibody, human IgG1, kappa)
# heavy: B1 heavy with R234S
# light: B1 light
# notes: as for B1
# Key:
# Test in all cases: SPR (BIACORE), 25 C, antibody captured, FcgR as analyte; KD of SG1 divided by KD of variant;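 note: relative to parent M103205H795-SG1 carrying the SG1 human heavy chain constant region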
# [1] = biological target: T1, cynomolgus monkey FcγRIIb extracellular domain, His-tagged (cynomolgus monkey)
# T1 construct: also called cyno FcγRIIb; cynoFcγRIIb; not shown: C-terminal His-tag
# T1 chain: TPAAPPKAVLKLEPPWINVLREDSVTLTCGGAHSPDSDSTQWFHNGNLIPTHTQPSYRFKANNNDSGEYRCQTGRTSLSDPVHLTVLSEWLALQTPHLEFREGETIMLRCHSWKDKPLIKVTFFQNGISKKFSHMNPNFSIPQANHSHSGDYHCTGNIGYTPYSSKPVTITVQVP
# Experimental: (§1) The kinetic analysis of interactions between these antibodies and FcγR was carried out using BIACORE® T200 or BIACORE® 4000 (GE Healthcare). HBS-EP+ (GE Healthcare) was used as the running buffer, and the measurement temperature was set to 25° C. A chip produced by immobilizing Protein A. Protein A/G or mouse anti-human IgG kappa light chain (BD Biosciences) onto a Series S Sensor Chip CM4 or CM5 (GE Healthcare) by the amine-coupling method was used. […] After the measurement, the antibody captured on the chip was washed off by allowing reaction with 10 mM glycine-HCl, pH1.5 and 25 mM NaOH so that the chip was regenerated and used repeatedly. The sensorgrams obtained as measurement results were analyzed by the 1:1 Langmuir binding model using the BIACORE® Evaluation Software to calculate the binding rate constant ka (L/mol/s) and dissociation rate constant kd (l/s), and the dissociation constant KD (mol/L) was calculated from these values. […] Regarding such interactions, KD values were calculated using the following 1:1 binding model described in BIACORE® T100 Software Handbook BR1006-48 Edition AE.
# [2] = biological target: T2, human FcγRIIb extracellular domain, His-tagged (human, UniProt P31994 43-217)
# T2 construct: also called FcgRIIb (human); not shown: C-terminal His-tag
# T2 sequence: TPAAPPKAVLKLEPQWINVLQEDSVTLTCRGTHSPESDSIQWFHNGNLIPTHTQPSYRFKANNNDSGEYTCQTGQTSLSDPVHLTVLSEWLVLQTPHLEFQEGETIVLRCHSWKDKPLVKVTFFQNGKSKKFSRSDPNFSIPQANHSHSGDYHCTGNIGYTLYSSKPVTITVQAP
# Experimental: as §1
# [3] = biological target: T3, human FcγRIIaH extracellular domain, His-tagged (human, UniProt P12318 34-217)
# T3 construct: also called human FcγRIIa (type H); FcgRIIaH; not shown: C-terminal His-tag
# T3 sequence: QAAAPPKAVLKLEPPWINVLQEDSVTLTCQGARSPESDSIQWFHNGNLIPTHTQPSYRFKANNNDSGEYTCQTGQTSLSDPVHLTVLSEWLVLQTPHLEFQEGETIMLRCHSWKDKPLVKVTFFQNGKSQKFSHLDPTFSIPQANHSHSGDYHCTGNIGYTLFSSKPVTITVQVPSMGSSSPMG
# Experimental: as §1
# [4] = biological target: T4, cynomolgus monkey FcγRIIa1 extracellular domain, His-tagged (cynomolgus monkey)
# T4 construct: also called cyno FcγRIIa1; FcgRIIa1; not shown: C-terminal His-tag
# T4 chain: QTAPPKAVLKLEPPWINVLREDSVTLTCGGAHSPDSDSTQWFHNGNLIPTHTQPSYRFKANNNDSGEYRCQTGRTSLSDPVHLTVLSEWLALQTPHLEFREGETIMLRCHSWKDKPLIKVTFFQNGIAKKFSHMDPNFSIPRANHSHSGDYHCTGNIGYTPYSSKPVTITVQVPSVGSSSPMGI
# Experimental: as §1
# [5] = biological target: T5, human FcγRIIaR extracellular domain, His-tagged (human, UniProt P12318 34-217)
# T5 construct: also called human FcγRIIa (type R); FcgRIIaR; not shown: C-terminal His-tag
# T5 chain: T3 sequence with H134R
# Experimental: as §1
# [6] = biological target: T6, cynomolgus monkey FcγRIIa3 extracellular domain, His-tagged (cynomolgus monkey)
# T6 construct: also called cyno FcγRIIa3; FcgRIIa3; not shown: C-terminal His-tag
# T6 chain: T4 chain with P95T, T121A, A128S, H133P, D135N
# Experimental: as §1
# [7] = biological target: T7, cynomolgus monkey FcγRIIIaS extracellular domain, His-tagged (cynomolgus monkey, UniProt Q8SPW2 21-206 at identity 1.00))
# T7 construct: also called cyno FcγRIIIaS; FcgRIIIaS; not shown: C-terminal His-tag
# T7 chain: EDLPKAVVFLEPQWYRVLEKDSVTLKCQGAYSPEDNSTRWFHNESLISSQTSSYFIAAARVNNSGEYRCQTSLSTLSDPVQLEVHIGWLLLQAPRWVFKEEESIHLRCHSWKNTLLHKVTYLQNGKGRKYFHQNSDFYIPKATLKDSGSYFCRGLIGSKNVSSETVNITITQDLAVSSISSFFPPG
# Experimental: as §1
# [8] = biological target: T8, human FcγRIIIaV extracellular domain, His-tagged (human, UniProt P08637 17-208)
# T8 construct: also called human FcγRIIIa (V158); FcgRIIIaV; not shown: C-terminal His-tag
# T8 sequence (P08637 17-208 F176V): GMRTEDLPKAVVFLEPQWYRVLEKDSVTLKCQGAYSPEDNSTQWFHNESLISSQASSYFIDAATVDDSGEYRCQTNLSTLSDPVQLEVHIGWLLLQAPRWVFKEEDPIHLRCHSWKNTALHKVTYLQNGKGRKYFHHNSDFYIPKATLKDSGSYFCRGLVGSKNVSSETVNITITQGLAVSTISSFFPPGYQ
# Experimental: as §1
# [9] = biological target: T9, cynomolgus monkey FcγRIIa2 extracellular domain, His-tagged (cynomolgus monkey)
# T9 construct: also called cyno FcγRIIa2; FcgRIIa2; not shown: C-terminal His-tag
# T9 chain: T4 chain with P95T, T121A, I127K, A128S, K130N, D135N, R142Q
# Experimental: as §1
Binder,KD fold (SG1 = 1) [1] [fold],KD fold (SG1 = 1) [2] [fold],KD fold (SG1 = 1) [3] [fold],KD fold (SG1 = 1) [4] [fold],KD fold (SG1 = 1) [5] [fold],KD fold (SG1 = 1) [6] [fold],KD fold (SG1 = 1) [7] [fold],KD fold (SG1 = 1) [8] [fold],KD fold (SG1 = 1) [9] [fold]
B1,0.3,0.7,0.9,0.5,0.7,0.8,0.1,0.1,0.5
B2,3.5,4.2,4.1,1.7,3.8,5,0.2,0.2,3
B3,9,13.9,5.3,4,15.1,14.2,0.3,0.2,6.1
B4,4.2,4.6,4.3,1.8,6.5,5.7,0.3,0.2,3.2
B5,2,2.1,2.2,1,2.4,3.1,0.1,0.1,1.8
B6,1.3,1.5,1.7,0.8,1.4,1.2,0.1,0.1,1.6
